# Test: soluble on expression in E. coli; label from the status in PepcDB or PDB records
row,Sequence,soluble on expression in E. coli
1,TDVDAFTLGEDLAYTPGDVIYQNDLIQLIQYKASTKKVNEVPLLFIPPFINKYYVLDMDEQKSLIKWAVGQGHTVFVISWINPDKTLSHKGFNDYMKEGPIASLDVIEELTKSKKVNVVGYCIGGTLLATTQSYLLAKGDTRINSLTFLTTLLDFEEPGEIGVYLSEKMLPFLKKDIKEKGLLDGRVLGLAFSMLRENSLFWSYFVNNYLKGKDPAPFDILYWNSDSSNLPAETFDFYMTNTYQENNLIKDGAVEVEGVPIELSKIDTPSYFLATIADHIVLWQASYKGAKALSGPTRFVLAGSGHL,not soluble
2,MGSDKIHHHHHHMIRFKDIHIPKPCSVEYDTLPGDDIKRFCGSCEKYVYDFRGKDQAYLNAVFSATGKACGIYYADQIQASPALKTNRPFYSSFVSKLIATSLFLRIFLTSNNTKAHRTEPQTIVQQTTDSTELKTIHTGNDKAMYRVTVDIYKNDTLEESFLLENQNSIYLPDSIKPLDKIKVVVSTVRYNIPTSKNRTRSGKYMSNKTYYTTEQKKTYHFNFAGCNKIIIKIRHTKFIHIFLKKRTAIMGLVCPSDFW,not soluble
3,MEFYDARKWCHYQSPVPSYLAYVPDLSTSNFLATYARAAFETNRFWIGLSRFDYFDPYLWDNGRPVTYTNFGTGTGNFVAEHTLNGKWYLYGNGAKNVFVCSYDPAAPPTFPPPFILTTRQSTITSANSCQPGGPISFLFAYSNDLDPQVVKDSWDLSNIDDYSGYSVYAIAKFDVLEEEDIVYFLDKKLATTYVHSHLSNSSLGFNGTTTGSDSLRIIEVGNVEGIESSQFLNFQKFFNNKDVTVCGSVCLILEKRYPNDEDISKTVSLVRYYHGIVYAVSSINPSGGTQSKAIYNLTSRTNGIFCSTDPSGGNQSKTIYNLTSKTNGLCNFAKDKDIAGLVTSVPMFYPPYPIYCANVLVSGQNITELPSMYVPQSIMYYTVFASVEDHGPLDNFQSFDFSWFNSDEPRYIQHLQSNSTVMDGVTSSGVYYIAPEIYTMKVQYNYTNKMEQAMQVRVYTYDGENSADWIPYCD,not soluble
4,MERSWGMGHFPHMQKKTLDAFVRGLQIVMEAEGIKMKPLSVAAGMGESGVRDLIRNESSPKVANAYALARELGRTVDEIIQIGMTGDLNARPAHAPIAVAGCVGAGARVDLLDAYEKGDGMYHVARPPQLKPHGIVAVEVKGESMMPLYRPGSVLFYTRAAAEGVPVEALNTPCVCEDADGRAWLKVVKVGSQEGTFSLLSLNPDADNMHGVRLKWAAPVLLTLSPDYVERVYV,not soluble
5,MTNNDKNKKIVPEVKGTLRSHMIELPEVIRNATGIRVFGKRLKSFVFSTDVAVIRNTNADAVIAVYPFTPQPVITAAIVLAADVPVFCGVGGGLTMGKRVVNLALDAEFKGAMGVVVNSPTPNDIIREVRETIDIPIIVTVVSEYEDVQARIDSGATILNVSGAKRTSHIVRSIREKFPSIPIIATGGNNEASIIETIEAGANAITYTPPTTGKIFGDTMNSYRKKFE,not soluble
6,MYDAYTPCEVALRLPVEVTCLAFQESNQTLLAGGRAGHLYAYTISANRRGFELTNICKSFHKKAVMELKVCQREDLLLCVSDGQLMAHKLSDPEYKVETLIHKVKPVQTFARFSPKTSGDLYVIVSSRKKLYLFKWGEKDGHKEFIEVALDYNPVFLDTPTSIRCVGEMVFFSVRNEYFSMTMQKDKTTTSPSEGSTPEGWNGFVTRLLNFNCQPGIVPMIDRRRVAFVRNEIVVTTDIWGQRPANVLSDEYKFSEVPMQIVYDSPYLVGMLSKGRVEVRSIFDGQLVQTMSLPKAMTLCSGARGQVFVAALSDIWILDTSQNLRKNVSHLIQERHFELAIQLAENSNLFAEEQKLEIKKKAALNLFNQKKFDESFALFGEIKTDISEVLSIIRMFPELLPDGFQSMTGVVSDMPANDRMRALLALGSYLSEIRTEHAKHIELYNRLYSSGAAKKTDEDEKAKLLLTLRVVDTTLLKCYIKTKPMLVDSLIRLQSNACTFEDAKKILESEGRLRSLFILYETRKKHEMALDLFIDQSSRPDADPFFDDAIQQIVEYLQSLGNSNLPLILKYAKWVLAKNLEAGVQIFTSDETEMARNLNRKAVVEFLKSECPDALIPYLEHVIFKWEEPSSYFHETLLEFYVARVNTLFKDYVHAFPDDENITRAGDEDGELGLYRKRLLKFLEVSHSYSPQTVLLQLAPHAFYEERALILGRLKQHEQALAIYVNTLKNVPAAEEYCRLYYNAHDETNSQVYLMLFRTLVHPNQQQLHSIPYHADSTPFGSYRDDVSEASTLVNSTSSYQPDVNTAIKILAKHADKIDTVGALNMLPATTPLRVVFSAINAVIQTTGRQASTRKMEKSVSQCAMSKKLERKNKAQSTKIIVNFSSECVVCEKKIAVSAFVRYPDGRLAHLYCHNDSQGGNRN,not soluble
7,MSLLRSLRVFLVARTGSYPAGSLLRQSPQPRHTFYAGPRLSASASSKELLMKLRRKTGYSFVNCKKALETCGGDLKQAEIWLHKEAQKEGWSKAAKLQGRKTKEGLIGLLQEGNTTVLVEVNCETDFVSRNLKFQLLVQQVALGTMMHCQTLKDQPSAYSKGFLNSSELSGLPAGPDREGSLKDQLALAIGKLGENMILKRAAWVKVPSGFYVGSYVHGAMQSPSLHKLVLGKYGALVICETSEQKTNLEDVGRRLGQHVVGMAPLSVGSLDDEPGGEAETKMLSQPYLLDPSITLGQYVQPQGVSVVDFVRFECGEGEEAAETE,soluble
8,MWFIMMDTKDPPTLLDLATQNLLSNEHAAIQALEEIPRELFVPLFTAAFTGRHKNILTAIVKAWPFACLHIGALSVQEPERELLKALIESLQFLLALNSATRSPKLRILDLRQDAGCKTVCPEISTNSTICFRSCAHSEHSIFKIEGQESLSSSKSEAQPSRLPMELIVDISLDGTLRERNFFALLQNKVEQSLGSLHLCCRDLQINNLCECRHALSHLDLKCVDHLAVDESPLTEVTKLLSHTIQLDSLSLSKIACRSLNGRTFRNFITQLSRMNHLKELSLSSFCLTDHLENVLRVLSADLEFLYLPFCGLSYSDFKFLSECSQVSHLKLLNVNNNPIYWEDCEPFYYLLQNVSSTLQHLKICYCFLTDSTISVLIPALTRCSQLRVLHFYSNQITMGMLMRILELLTPLKELKHVIYPIPVHCYGRWHFQGSLDRQKVEDVQRQLNLMLQEAERSDMNWITYSD,not soluble
9,GPGSMSDDTRYMYPARKAHAMDLGSSLNPEGDQKQTWGSVASVADAMSPTAEIKPSAPQVTHFGTGLGMQSSTGDPTLQEADSDGDKTEAVNEFDLAAYSKEDLTQTLHKRIMSRMFSAFDVTQVGYLDINKLKELCVYVGRNMSQEASEKMFDELKGIDGHITFDVFWNWWTTYPDTKMTKDTFSLVSADFSVPYHQQQLKIKDEGEIFTPSYRVKYYFKDMETGLRRRVSPWHDVPLYVRDPVRTKPENIRANRYNFICEIPKWTRAKFEIATGEPFNPIKQDIKNGVPRFYKHGDMMWNYGAFPQTWESTEVIFEDGVSGDNDPIDGVEIGMRQMRVGEIHPVRILGVLGMIDDGQMDWKVICMSVNDPVARFIKDIDDIPKFLPGCLDALREWFRVYKICQGGVENKFAFNGEYKDKTYAMKVVDESHYMWENLRKIKKKEEV,soluble
10,MSLTSTATDSPLKYYDIGLNLTDPMFHGIYNGKQYHPADYVKLLERAAQRHVKNALVTGSSIAESQSAIELVSSVKDLSPLKLYHTIGVHPCCVNEFADASQGDKASASIDNPSMDEAYNESLYAKVISNPSFAQGKLKELYDLMNQQAKPHDTSFRSIGEIGLDYDRFHYSSKEMQKVFFEEQLKISCLNDKLSSYPLFLHMRSACDDFVQILERFVVGFTDEKDTFQLQKLGASSSSGFYKFHPDRKLVVHSFTGSAIDLQKLLNLSPNIFIGVNGCSLRTEENLAVVKQIPTERLLLETDAPWCEIKRTHASFQYLAKYQEVRDFEYPAFKSVKKNKLADKLNAEELYMVKGRNEPCNMEQVAIVVSEVKDVDLATLIDTTWKTTCKIFGEGHHHHHH,soluble
11,MSLSKTLLEIRLNSLIDLRMFYFISLYFRLENKESHKSQEIGNLIRVYNRSKREEAESEPLNLYVEDEKGNLLAGLIAETFGNWLEIEYLFVKEELRGQGIGSKLLQQAESEAKNRNCCFAFVNTYQFQAPDFYQKHGYKEVFSLQDYLYIRQRYYYQKNLEGHHHHHH,not soluble
12,MGSDKIHHHHHHAVVPGKKDFINENTPGSKVVQTPEGAWFKDDKNRQEWSITSEDGLRLKAIYLPADKKSNRTVIMAHGYMGSAETMSVFAKMYHDWGYNVLAPDARGHGKSQGDYIGFGWPDRKDYVQWIEKVLTENGQQEQITLYGVSMGAATVMMTSGEKLPDNVKAIVEDCGYSTVNQELQYQLKELFNLPSFPLVNVTSGITKLRAGYFFGEASAVKQLQKNHLPMLFIHGENDTFVPFSMLDEVYNATQGPKEKYVVPGAEHAKAYNKNPEKYKETVAAFLDKYIK,not soluble
13,MAHHHHHHMLANYDYESDLRGRTDELGRAQHVDAYDKHPTFLESPYAGQEDLLRDAPQSYMDGPPPGYGGHDAYEHVDMNGGGYDLPLQPQAQTQAVDTRRLSKDRLARGGLNIFSWSTDAPTLNHPREVRERDCAELQRLRPVDSAAQRDKEVREKFEGNTQSRFLCFSESDSPGKRRGVRVFNPNNKNGNLNSGTGHENPIQNRFNEEPQPFKIRQQQPRPLPQQNLPPAGRATHSNRQESGGIPGFAGMGEGRQHNARRGRGSYRG,soluble
14,MIVMATCLLPDETDDACARNPWISHELVTSTVGPGDGLDLRAACSTGTLISGGCSADTFPDDELSLMRSGFAPDNRDEWLCSFKSLHESVTYEVATMAFCLNEDPLPAECGCCPPLAEQLTIRQTNEPLRNGPNRLEASCEDDEFLLIGNCMLDVPAVSEVESVTMFRYGYPPTDEHPDGDYSKWGCSWHNPTGYTPRALANAVCLPAQ,not soluble
15,SNAMVKDRQIQKTKVAIYNAFISLLQENDYSKITVQDVIGLANVGRSTFYSHYESKEVLLKELCEDLFHHLFKQGRDVTFEEYLVHILKHFEQNQDSIATLLLSDDPYFLLRFRSELEHDVYPRLREEYITKVDIPEDFLKQFLLSSFIETLKWWLHQRQKMTVEDLLKYYLTMVER,soluble
16,MMKTVLIYYPFSLAAERNSGSKLRPYEMHQAFLRWGAKEGVDVLLIAGTSAEREKQFQELRSQGKLDDVWFCYMENQTIPLWLTDPGHRSQRPFVDRDVLRYLKARNVPIGVFYRDVYWKFPDLYPLRGWKKAAMQMMYRWEERFYERYCDVIFLPSLEMGTYVAIRRPMVDLPPGGKQKPFQRFGTAKQPLNAIYVGGINNADYGLLLLLEAIRLANRRKPLVSLTVVCRKDEYERQPLAVKEELAALQVRVEHVSGEALDRLYAEMDFAFIPRRRSEYNDFSVPVKLVDYLSSGLPIVATACSAQKRLIEADGYGVICDDNPSSMAEAIAKMADMLEECRLRIAQTFMAKHSWEARVEKVKETLVGGLR,not soluble
17,MTCDDWNSFIQVNIYGKTIEGLQQQGVVLESLLNNIGCSKLWIVEGSMYTSLTNESSTYSESTIEPVVPLSTTLATNKLPRFSTPAVGHSKYNSAKNFTLNLAEKLSEILSDDDKTDKCLENSYQSETSREDVIQDLLEEMVQTVADVDQAPILLSTTLANIGVPRFSTPIKPQNGLDRKFTMNMTERISEIDSNYQGYELFEDSSNDCTTLIPNCQEVESSFYRALPEAASSIVPYQEGKRRSSRRLSTLSSLKETVKIEPTVSKLTKRRRLTSIESSNETMVPHSEPIPLDKDGFSYEQPINEYGDNESFLSAKSLCTEPRSSISEDVKPVLKATDSERTVSIGNHIVDHHPVIELSTEHNTMGEFQYDFDDEDTVLIGNYEEVGTEIDEAEQQNEENSEDDEEDESPIPSTKKVSFAVPVVQRLNKRNEQMNKNHIIKCNFEGCKQILSWKLRYGKQRLLDHAMTHENEKCLVCRTCEYSCSTHPQMKYHYQKMHPEVRCDGFNIQKVFNIEFDEVAIFDLFQKCFGAHSSIIGNIGKPRRYKKCKNSLKNTPEVDNENVDKDSPGPSHDLF,not soluble

# From the DeepSol protein solubility set
